± gives the uncertainty stated by the source.
Assay: amyloid nucleation score (Sup35N fusion, yeast selection) (log enrichment); library NNK1; higher = more nucleation; inactive = no reads after selection
Procedure, shortened: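 DiMSum was used to calculate nucleation scores as log enrichment of output over input reads, centred on the mode score of non-aggregating sequences. Sequences with fewer than 100 input reads were not scored. Input and output came from Illumina sequencing of plasmid inserts in psi-negative yeast expressing peptides of 20 random codons fused to Sup35N, induced 24 hours with 100 μM copper sulfate and then grown 7 days at 30°C on medium lacking adenine and uracil.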

Row | Substance | amyloid nucleation score
1 | GFSSMRYEGFGTGKCVDFLS | 0.281 ± 0.22
2 | GFVEYYRVLTYDKM | 1.22 ± 0.88
3 | GFVPLWLW | 0.977 ± 0.8
4 | GGAHSY | 0.233 ± 0.5
5 | GGELMAFTA | 0.553 ± 0.49
6 | GGFFRHGEIDMYRCSSEWFL | 0.77 ± 0.97
7 | GGIVLDTTHRVGYGRTSPCV | 0.289 ± 1.2
8 | GGIYANYNFGYLARTESGLG | 1.04 ± 0.7
9 | GGLKMTP | 0.393 ± 0.25
10 | GGRNWFYRALR | 0.362 ± 0.63
11 | GGSGDTTSCMLFKRIVRR | inactive
12 | GGVISESTGYLRLIHRRWDG | -0.751 ± 1.7
13 | GGYRVLIFSIFRG | 0.599 ± 0.51
14 | GHCGPEKREIDVAGVWVERS | -0.098 ± 1.3
15 | GHDLSVPWRTDWLRGL | 0.177 ± 1.2
16 | GHGYCLSWFNGNDPRGTTTT | 1.1 ± 0.7
17 | GHISIMVHYLFVSTHSSQED | 4.46 ± 0.13
18 | GHWLYMTYLCL | 0.459 ± 0.75
19 | GIFHANLTMVWRHIEVKEGC | 0.696 ± 0.92
20 | GIGLGFQ | -0.563 ± 0.53
21 | GILLRH | -0.742 ± 1.2
22 | GINNIYGLRYRHMPTSSIVA | 1.88 ± 0.39
23 | GIRPNFTVRFGGSWSQRNDR | 0.749 ± 0.47
24 | GISLSLVVERSGK | 1.49 ± 0.21
25 | GIYTFFVGTKFC | 0.65 ± 0.5

Row | Substance | amyloid nucleation score
26 | GKAASRNGGMWKEMRFEACD | 0.046 ± 0.42
27 | GKEPVACRIPNKA | 1.17 ± 0.3
28 | GKHGQDFNSYRRVWLKSYLC | 1.07 ± 0.52
29 | GKLVVFNFL | 8.483 ± 0.048
30 | GKNTYVCVGSSASSFWGSLL | 0.86 ± 0.77
31 | GKNWSFLTSYFCWFTLKIH | 1.4 ± 0.35
32 | GKSMYCYK | -0.96 ± 2.7
33 | GKTISGL | 0.239 ± 0.44
34 | GLCMEYTVWWVWSWITLRVD | -0.294 ± 0.26
35 | GLGCYVKNKTHESYARSTAH | -0.671 ± 0.56
36 | GLKGDIWDMGYSFGWRDGDA | 0.297 ± 0.51
37 | GLLVGLQQCYNYGWKGSDCN | 0.504 ± 0.75
38 | GLMNSRYMYVVNMS | 0.758 ± 0.4
39 | GLNCSGNGEVIWQP | -0.403 ± 1.4
40 | GLQFSFVEFFSLYVESEDHY | 0.332 ± 0.35
41 | GLRATVYITLRFE | -0.442 ± 0.43
42 | GLRDACFSVLPVYLWVSNGD | 0.281 ± 0.55
43 | GLRSESRKRGGGGGVAREVG | -0.053 ± 0.86
44 | GLVSRLCRFHFMCIACNPKL | 0.585 ± 0.43
45 | GLWLQL | 0.216 ± 0.26
46 | GMCSEGTFKRQLISMHTCRT | 0.247 ± 0.79
47 | GMLDAY | inactive
48 | GMNPQTHAPVILTLGVQNIR | 2.2 ± 0.14
49 | GMPGHFLLLKLGYFANRTNR | -1.25 ± 1.1
50 | GMRVLQIFGTGGGDSNTRGD | 0.84 ± 0.36

Row | Substance | amyloid nucleation score
51 | GMYLYIPLSITFTVEHTVVA | 5.02 ± 0.093
52 | GNAWCGLGSKKYCVWLYHYS | 0.214 ± 0.28
53 | GNFCFPMAYTGLVFGEMLSF | 0.1 ± 0.24
54 | GNGFVL | 0.999 ± 0.45
55 | GNIFAYGT | -0.611 ± 0.76
56 | GNIFWRMLWFVGYEKGSLLF | -0.022 ± 0.36
57 | GNKPLVVHGSGGICKLCE | -0.147 ± 0.38
58 | GNLVTCNSKYTRMEG | 0.166 ± 0.49
59 | GNSWTSVVLHYFGSFSWGVT | inactive
60 | GNTWNIMFNICCLQGIECCL | 7.349 ± 0.051
61 | GNWAVGSIRDSCICGYIELR | 6.915 ± 0.046
62 | GNWGNGSGTCLCTSSFYCRL | 2.78 ± 0.14
63 | GPDRCDRWEPRCCAKSRRER | -0.061 ± 0.42
64 | GPQIGG | 1.38 ± 0.17
65 | GPRYRLLLWECCRHDLSLSC | 0.72 ± 0.43
66 | GPTYVSSFLELWRNTSHDFC | -0.402 ± 0.88
67 | GPWGQICSDTFYLLFVWVSW | 0.133 ± 0.37
68 | GQFAFNMKNSLMNVVGVILE | inactive
69 | GQLSCLSFNVVTGRYKAIAF | 0.629 ± 0.38
70 | GQYVWADLINVVRLWVFVSR | 0.503 ± 0.87
71 | GRATMGRGRCNLFGHKGHGH | 0.046 ± 0.55
72 | GRFLHINS | inactive
73 | GRILYEAYTPVERVYAWCSA | inactive
74 | GRIQCHYGLSVYNGFESGTG | 0.279 ± 0.83
75 | GRKRYKRATHH | -0.593 ± 1.5

Row | Substance | amyloid nucleation score
76 | GRMNKNYA | inactive
77 | GRNWLVGCVAQWHWSSLSWS | -1.11 ± 2.7
78 | GRPNATIKNLVIFSEMFYSL | 4.68 ± 0.063
79 | GRVDWMCEYLKLMRSVGWSR | 0.545 ± 0.41
80 | GRYWSCEATRLCKYFGCTMR | -0.212 ± 0.48
81 | GSARYCSYCWRTSDITWIIH | 1.71 ± 0.13
82 | GSCGKGHLSPRALLFTHSWQ | -0.446 ± 0.61
83 | GSCLISRT | 1.02 ± 0.5
84 | GSCVCECGWIFTARGVRVFK | -0.346 ± 0.42
85 | GSDQLSTT | -0.338 ± 0.43
86 | GSFLRGPHPKNY | 0.853 ± 0.66
87 | GSGNVRL | -1.61 ± 2.4
88 | GSGVDSRVSCKKFILSLVGA | -0.39 ± 1.7
89 | GSGWEGSTVRFSQASFGELW | 0.328 ± 0.97
90 | GSHSGVFRVIKYQILFEVGM | inactive
91 | GSIWED | -0.778 ± 0.64
92 | GSKSFPSSGSSMQAAGTSSG | -0.069 ± 0.36
93 | GSLLICEWLRFSRGRGVRSY | 1.11 ± 0.79
94 | GSMNVECDRDRDRYNVCHYR | -0.569 ± 0.39
95 | GSRRDRISLRSQRVCILEKG | 1.95 ± 0.6
96 | GSSWYNNPVQGILGGYNL | -0.348 ± 0.47
97 | GSTFVGAIKQPIVCWIESGN | -1.32 ± 1.2
98 | GSTTSLRFTVLQTFLFSCNN | -0.663 ± 0.8
99 | GSTYR | -0.482 ± 0.51
100 | GTCPSRPVSV | -0.139 ± 0.47

Row | Substance | amyloid nucleation score
101 | GTGSSAVDVFSGLMCGTDVL | -0.145 ± 0.46
102 | GTHTEYSQKTVLVDIFTELM | inactive
103 | GTLGSWSIIISLIRHSECLC | -0.659 ± 0.46
104 | GTLVLYFCGVC | 6.62 ± 0.059
105 | GTMDMSQGYSQVCLDFIVHG | -0.626 ± 1.2
106 | GTRCMALALGLHIYIFIRGG | -0.161 ± 0.46
107 | GTRQSDHYCVSTGLCV | 0.352 ± 0.36
108 | GTRWSHTWWPGTNLMLCVQG | -0.453 ± 0.26
109 | GTSMRFGGGVIF | -0.721 ± 0.49
110 | GTVSGYYVRVGNFAMYYQAY | 1.91 ± 0.17
111 | GVADMAVRGQCSHYSVAWST | -1.07 ± 0.82
112 | GVCWRDYGLEAGTGAQVQQC | 3.03 ± 0.15
113 | GVDHIGLGTEEYNQSYLGSG | -0.505 ± 0.53
114 | GVHRWVRSARLEAVHFGAGW | 1.45 ± 0.84
115 | GVLSICGML | -0.401 ± 0.31
116 | GVRYQALFLSAVL | 0.09 ± 0.21
117 | GVSKCQDEYSGLGNRNYM | -1.28 ± 0.59
118 | GVSQNKCMPVWCVR | 0.504 ± 0.38
119 | GVTYNLK | -0.685 ± 1
120 | GVVFPWSVLMFSCSSCLAVP | 0.605 ± 0.61
121 | GVVGVNSADLFNGKIVIKFS | 1.81 ± 0.2
122 | GWAGRVCNRGKTWDIDLRQR | -0.7 ± 0.34
123 | GWCFVSRDLVNYLMCVTAGV | -1.02 ± 0.88
124 | GWSLNQVVCCALCSVSRRKR | 0.553 ± 0.48
125 | GWSSFWGPLVCARVWRRIGE | 0.433 ± 0.54

Row | Substance | amyloid nucleation score
126 | GYIVYDIMYAIFYKQTVYLI | inactive
127 | GYIYLFGARFVVEEFGIVFW | 0.678 ± 0.93
128 | GYKMAYNFCDEKEGLNWRVG | -0.257 ± 0.52
129 | GYYIEMLYFMEALDIS | inactive
130 | HAAYTEVFILLLNDNILPHL | -0.393 ± 0.45
131 | HAFSSCDYSHYVFGMRPFDL | 1.51 ± 0.15
132 | HAMISWDISNVCVYWHMCPW | 0.12 ± 0.33
133 | HCVTFACC | 0.523 ± 0.53
134 | HDSLKFVKQSFFCPEVYIPG | -0.596 ± 0.47
135 | HEFYSVLMGHFVWLQPWETR | 0.839 ± 1.1
136 | HEGPCKRNCTGVLLRSARRH | -0.049 ± 0.26
137 | HEIKIRHFIRMTGSGSYQSL | 0.176 ± 0.29
138 | HERFLRIQRVHREKKCKVCL | 0.267 ± 0.77
139 | HEYNCRG | inactive
140 | HFCKYSQNIELRQALGCYFW | 6.16 ± 0.065
141 | HFEQGYAHSSYMWVLGRPMW | 2.86 ± 0.087
142 | HGIFEGRITVILKGY | 4.05 ± 0.15
143 | HGLGALYTSVRRARLGFFYC | 4.23 ± 0.15
144 | HGMWNTQVTVTWYTSADLFV | -0.093 ± 0.52
145 | HGRIGLVWESGKCMTYLREV | 0.191 ± 0.37
146 | HGVLCSWSRLKTRFDQNGIS | 0.616 ± 1.2
147 | HHIRCRVRIQNNPS | 0.368 ± 0.55
148 | HHLTRTTPYPTSTWLAQLLS | 0.994 ± 0.63
149 | HICTTFCTSMFSRTSQWSGG | 0.673 ± 0.3
150 | HIDWSNVSYGDDRYGSGDCR | 0.142 ± 0.19

Row | Substance | amyloid nucleation score
151 | HIESNYRSERTDGWYICRSG | 1.11 ± 0.2
152 | HIFHCGNRRFHTIKM | inactive
153 | HIKHSMMFGTYTK | -1.2 ± 0.72
154 | HIMEIVESFTIETRMIKGCV | 0.874 ± 0.53
155 | HIQLIYVTIVLESRLSWWRI | 0.934 ± 0.53
156 | HIWLVVKKFPNIEHSIMIGS | -0.334 ± 1.2
157 | HKCDSVKVGGSCNKTAYSRC | 0.787 ± 0.59
158 | HKFSNELLL | -0.145 ± 0.76
159 | HKLDQLKASRLPSLVNWRVG | 1.12 ± 0.7
160 | HKLFNALNPKKG | 0.532 ± 1.2
161 | HKRLVGSYWFIFYSVTRYQE | -0.685 ± 1.7
162 | HKSIMAYRN | 0.677 ± 0.68
163 | HLCFIADGQLRTVVVELFPI | 0.576 ± 0.42
164 | HLDGSVISNSMVNIVFLSLV | 5.71 ± 0.072
165 | HLICRFVHVNHCLVQQPKGS | 1.37 ± 0.33
166 | HLLNYIVGL | 0.294 ± 0.69
167 | HLRFYAYRGMGRPNFFLCFE | 0.183 ± 0.38
168 | HLRIGLNDVSLIISLTDKRT | -1.07 ± 0.47
169 | HMFIFPYGAFMMERLFSGAI | 0.198 ± 0.97
170 | HMVFC | -0.446 ± 0.33
171 | HNFLLYVSSYSFFHRLFMLH | 0.149 ± 0.46
